Data reported in paper doi:10.1101/2021.01.04.425348.
Each block holds one substance with its values, some of them ahead of it.

Key:
[1] = target: HSA 82-aa RNC with Cys34, Cys53, and Cys62 mutated to Ala (human); test: high-speed atomic force microscopy
[2] = target: protein disulfide isomerase (PDI), wild type (human) (UniProt P07237); test: high-speed atomic force microscopy

Chain of protein disulfide isomerase (PDI), wild type (P07237 18-508): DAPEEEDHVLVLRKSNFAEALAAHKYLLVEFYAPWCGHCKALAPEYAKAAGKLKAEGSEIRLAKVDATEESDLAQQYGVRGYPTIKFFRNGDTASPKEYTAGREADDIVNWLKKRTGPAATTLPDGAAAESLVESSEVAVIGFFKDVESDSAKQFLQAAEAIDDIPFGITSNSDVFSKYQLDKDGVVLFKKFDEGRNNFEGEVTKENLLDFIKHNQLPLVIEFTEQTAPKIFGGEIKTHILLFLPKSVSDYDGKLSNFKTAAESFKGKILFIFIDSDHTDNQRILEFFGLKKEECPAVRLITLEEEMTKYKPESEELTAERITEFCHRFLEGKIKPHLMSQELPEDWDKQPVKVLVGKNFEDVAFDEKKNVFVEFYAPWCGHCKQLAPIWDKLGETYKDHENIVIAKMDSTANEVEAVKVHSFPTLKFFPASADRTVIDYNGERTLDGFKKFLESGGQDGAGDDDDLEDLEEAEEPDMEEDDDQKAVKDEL
Chain of protein disulfide isomerase (PDI), wild type, P07237 18-508 (enzyme; other documents disagree on this pair) (P07237 18-508): as above

RNC binding time (8/59 molecules) [1]: 60 s
Substance: ER-resident protein 46 (ERp46), wild type (from UniProt Q8NBS9 33-432) (enzyme)

RNC binding time (PDI homodimer, 17/19 molecules) [1]: > 60 s
RNC binding time (PDI monomer, 52/55 molecules) [1]: < 10 s
Substance: protein disulfide isomerase (PDI), wild type (from UniProt P07237 18-508) (enzyme)

stoichiometry N [2]: 2
Substance: protein disulfide isomerase (PDI), wild type, P07237 18-508 (enzyme; other documents disagree on this pair)
